The text below walks through data of patent publication US7985739, “Enhanced sleeping beauty transposon system and methods for using the same” (The Board of Trustees of the Leland Stanford Junior …).

Data set [1] relates to Sleeping Beauty transposase N123 HSB1 (mutations not given) (salmonid (reconstructed)). The experiment in a line: EMSA. To be noted: no change vs WT.
The subject of data set [2] is Sleeping Beauty transposase K33A K33A (salmonid (reconstructed)). The experiment in a line: cell_activity. To be noted: transposition in HeLa; text says improved 400%.
For data set [3], the system named is Sleeping Beauty transposase HSB-5 K13A,K33A,T83A,S270A (salmonid (reconstructed)). The experiment in a line: cell_activity. To be noted: transposition in HeLa, G418R colonies.
The test system of data set [4] is Sleeping Beauty transposase S270A S270A (salmonid (reconstructed)). The data set is described as follows: cell_activity. The note with it: transposition in HeLa.
Data set [5] deals with T1, Sleeping Beauty transposase N123 HSB2 (salmonid (reconstructed), K33A,L91A).
T1 chain: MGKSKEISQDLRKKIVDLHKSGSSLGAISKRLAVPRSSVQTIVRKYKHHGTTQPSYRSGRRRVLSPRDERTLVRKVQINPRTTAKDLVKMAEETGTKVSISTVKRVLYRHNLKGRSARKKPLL
The experiment in a line: EMSA; cold competition, 1-500 nM. The note with it: tags: pGADT7 TNT T7 reticulocyte lysate; label: 32P. On the procedure:
(§1) Truncated (N123) derivatives of wild-type and mutant SB proteins were generated using the TNT T7 coupled reticulocyte lysate system (Promega) according to the manufacturer's instructions. Double-stranded oligonucleotides corresponding to the outer and inner direct repeats (DRs) from SB's left inverted repeat (IR) were end-labeled using [γ-^32P]ATP and PNK. Complexes were formed in a 10 μl volume containing 10 fmol labeled oligonucleotide, 6 μl of in vitro translation product, 1 μg poly(dI)(dC), and binding buffer as previously described (Ivics et al., 1997). For competitions, increasing amounts (1-500 nM) of the corresponding unlabeled oligonucleotide was added to the reaction. After a 90 minute incubation at 22° C., 5 μl of loading dye was added and each sample was resolved on a 5% polyacrylamide gel for 2-3 hours at 120 volts. Binding affinities were determined by measuring the ratio of bound vs. free radiolabeled probe using a Phosphorimager, and normalized according to the amount bound in the absence of cold competitor minus the amount bound at the highest competitor concentration.
(§2) Figure 8: FIG. 8. is a comparison of the relative binding affinities of the WT and HSB mutants for transposon binding sites. SB-N123 peptides for WT and hyperactive transposases were complexed with double-stranded radiolabeled oligos encoding the inner (top panel) or outer (bottom panel) DR sequences. Protein-DNA complexes were formed in the presence of increasing amounts of the corresponding unlabeled oligonucleotide. The percent binding was determined using a Phosphorimager and normalized according to the amount of probe bound in the absence of any competitor minus the amount of probe bound at 500 nM.
For orientation: Mobility shift assays separate free from complexed probe on a gel.

For data set [6], the target named is T2, Sleeping Beauty transposase N123 HSB4 (salmonid (reconstructed), K33A,T83A,L91A).
T2 chain: T1 chain with T83A
The experiment in a line: EMSA; cold competition, 1-500 nM. To be noted: tags: pGADT7 TNT T7 reticulocyte lysate; label: 32P. Here is the method:
as §1, §2

Data set [7] has as its target T3, Sleeping Beauty transposase N123 HSB3 (salmonid (reconstructed), K13A,K33A,T83A).
T3 chain: T1 chain with K13A, T83A, A91L
The data set is described as follows: EMSA; cold competition, 1-500 nM. The note with it: tags: pGADT7 TNT T7 reticulocyte lysate; label: 32P. On the procedure: as §1, §2

Data set [8] has as its target T4, Sleeping Beauty transposase N123 (WT) (salmonid (reconstructed)).
T4 chain: T1 chain with A33K, A91L
The experiment in a line: EMSA; poly(dI)(dC), 22 C; 500-fold cold oligo used as specific competitor. The note with it: tags: pGADT7 TNT T7 reticulocyte lysate; label: 32P. On the procedure:
as §1

Data set [9] deals with T1, Sleeping Beauty transposase N123 HSB2. The data set is described as follows: EMSA; no change vs WT. To be noted: tags: pGADT7 TNT T7 reticulocyte lysate; label: 32P. Here is the method:
as §1, §2

Data set [10] has as its target T2, Sleeping Beauty transposase N123 HSB4. The experiment in a line: EMSA; no change vs WT. The note with it: tags: pGADT7 TNT T7 reticulocyte lysate; label: 32P. Here is the method: as §1, §2
The target of data set [11] is T3, Sleeping Beauty transposase N123 HSB3. The data set is described as follows: EMSA; no change vs WT. To be noted: tags: pGADT7 TNT T7 reticulocyte lysate; label: 32P. Here is the method:
as §1, §2

The target of data set [12] is T5, Sleeping Beauty transposase N123 L25A (salmonid (reconstructed), L25A).
T5 chain: T1 chain with L25A, A33K, A91L
The experiment in a line: EMSA. The note with it: tags: pGADT7 TNT T7 reticulocyte lysate; label: 32P. On the procedure:
as §1

Data set [13] deals with T6, Sleeping Beauty transposase N123 I42A (salmonid (reconstructed), I42A).
T6 chain: T1 chain with A33K, I42A, A91L
The data set is described as follows: EMSA. The note with it: tags: pGADT7 TNT T7 reticulocyte lysate; label: 32P. On the procedure: as §1

Data set [14] deals with T7, Sleeping Beauty transposase N123 R36A (salmonid (reconstructed), R36A).
T7 chain: T1 chain with A33K, R36A, A91L
The data set is described as follows: EMSA. The note with it: tags: pGADT7 TNT T7 reticulocyte lysate; label: 32P. On the procedure: as §1

Changes are numbered by the printed parent chain.

“TCCAGTGGGTCAGAAGTTTACATACACTAAGT (double strand) [inner DR of SB left IR]”: the binding signal (fold affinity vs WT) in [1] was 1.
For “pT/nori neomycin-marked SB transposon (full sequence not given)”, the activity in [2] is 400 % of WT; in data set [3] it was more than 10 fold vs WT; in data set [4], 186 % of WT.

B1: outer DR of SB left IR (dsDNA)
DNA 1: TACAGTTGAAGTCGGAAGTTTACATACACTTAGG
DNA 2: CCTAAGTGTATGTAAACTTCCGACTTCAACTGTA
Take B1: the binding result in [5], in data set [6] and in data set [8] was “binds” each time. In addition, in data set [7], the binding signal came to 2 fold affinity vs WT.

B2: inner DR of SB left IR (dsDNA)
DNA 1: TCCAGTGGGTCAGAAGTTTACATACACTAAGT
DNA 2: ACTTAGTGTATGTAAACTTCTGACCCACTGGA
For B2, the binding result in [8], in [12], in data set [13] and in data set [14] was “binds” in each case. Also, the binding signal in [9], in data set [10] and in data set [11] was 1 fold affinity vs WT each time.
